Common to all, as to assay: native MS; nanoESI on a Waters SELECT Series Cyclic IMS (Q-IM-TOF), gentle tuning at low cone voltage; quadrupole-selected charge-reduced precursor, surface-induced dissociation and ion mobility; 160/40 ammonium acetate/triethylammonium acetate; CRP 1 uM, SA 2-3 uM, PhosB 4 uM; TRAP ~1.5 uM complex in 600 mM ammonium acetate with TEAA added for 15+
Data set [1] deals with streptavidin (UniProt P22629).
Data set [2] deals with the molecule itself.
Data set [3] concerns the target T1, human recombinant C-reactive protein (human), P02741.
T1 chain: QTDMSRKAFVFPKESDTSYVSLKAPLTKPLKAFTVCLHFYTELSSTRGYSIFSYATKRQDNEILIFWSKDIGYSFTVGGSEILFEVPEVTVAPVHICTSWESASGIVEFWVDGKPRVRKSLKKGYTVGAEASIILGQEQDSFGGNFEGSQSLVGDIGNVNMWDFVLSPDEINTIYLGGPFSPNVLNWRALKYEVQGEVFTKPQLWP
The settings on record: remark: other sources report otherwise.

One may read the stoichiometry N as the number of molecules, sites or subunits per partner or assembly. The molecule “streptavidin (from UniProt P22629 25-183) (natural protein)” came in with a stoichiometry N in data set [1] of 4.

B1: phosphorylase B (enzyme, UniProt P00489 1-843, looked up)
chain: MSRPLSDQEKRKQISVRGLAGVENVTELKKNFNRHLHFTLVKDRNVATPRDYYFALAHTVRDHLVGRWIRTQQHYYEKDPKRIYYLSLEFYMGRTLQNTMVNLALENACDEATYQLGLDMEELEEIEEDAGLGNGGLGRLAACFLDSMATLGLAAYGYGIRYEFGIFNQKICGGWQMEEADDWLRYGNPWEKARPEFTLPVHFYGRVEHTSQGAKWVDTQVVLAMPYDTPVPGYRNNVVNTMRLWSAKAPNDFNLKDFNVGGYIQAVLDRNLAENISRVLYPNDNFFEGKELRLKQEYFVVAATLQDIIRRFKSSKFGCRDPVRTNFDAFPDKVAIQLNDTHPSLAIPELMRVLVDLERLDWDKAWEVTVKTCAYTNHTVLPEALERWPVHLLETLLPRHLQIIYEINQRFLNRVAAAFPGDVDRLRRMSLVEEGAVKRINMAHLCIAGSHAVNGVARIHSEILKKTIFKDFYELEPHKFQNKTNGITPRRWLVLCNPGLAEIIAERIGEEYISDLDQLRKLLSYVDDEAFIRDVAKVKQENKLKFAAYLEREYKVHINPNSLFDVQVKRIHEYKRQLLNCLHVITLYNRIKKEPNKFVVPRTVMIGGKAAPGYHMAKMIIKLITAIGDVVNHDPVVGDRLRVIFLENYRVSLAEKVIPAADLSEQISTAGTEASGTGNMKFMLNGALTIGTMDGANVEMAEEAGEENFFIFGMRVEDVDRLDQRGYNAQEYYDRIPELRQIIEQLSSGFFSPKQPDLFKDIVNMLMHHDRFKVFADYEEYVKCQERVSALYKNPREWTRMVIRNIATSGKFSSDRTIAQYAREIWGVEPSRQRLPAPDEKIP
notes: phosphorylase B, dimer, 197 kDa; This catalogue product is recalled to be from rabbit muscle (surmise); also called PhosB; source: bought: Millipore Sigma (P/N P6635)
Consider B1, for which the “stoichiometry N” value in data set [2] is 2.

B2: Tryptophan RNA-binding attenuation protein (TRAP) from Bacillus stearothermophilus (natural protein, UniProt Q9X6J6 1-74, looked up)
chain: MYTNSDFVVIKALEDGVNVIGLTRGADTRFHHSEKLDKGEVLIAQFTEHTSAIKVRGKAYIQTRHGVIESEGKK
notes: also called TRAP bst; source: Mark Foster's lab; copies: 11
Consider B2, for which, in data set [2], the “stoichiometry N” value stood at 11.

B3: human recombinant C-reactive protein, P02741 19-224 (natural protein)
chain: T1 chain
For the molecule B3, the stoichiometry N in data set [3] worked out at 5.

Source of the values: publication PMC12318544, “Roughhousing with Ions: Surface-Induced Dissociation and Electron Capture Dissociation as Diagnostics of Q-Cyclic IMS-TOF Instrument Tuning Gentleness” (Journal of the American Society for Mass Spectrometry, 2024).
